The values below are quoted from earlier work in paper PMC4404502.

The target in the data set is Asp11 (position 11, …). Kind of data set: fluorescence. The following applies: membrane-inserted helix.

As usually defined, the pKa is the negative logarithm of the acid dissociation constant. On to KKGLLLLLLLDLWLLLLLLLLLKKA [pL(D11) poly-Leu transmembrane model peptide (synthetic construct)], for which the pKa is 8.7.
